Experimental data taken from article PMC7235987 (ACS Catalysis, 2020).

What was measured:
Test in all cases: SEC-MALS
[1] = target: CdChdC variant H118A (Corynebacterium diphtheriae) (UniProt Q6NGV6)
[2] = target: CdChdC variant H118A/Y135A (Corynebacterium diphtheriae) (UniProt Q6NGV6)
[3] = target: CdChdC variant Y135A (Corynebacterium diphtheriae) (UniProt Q6NGV6)
SEC-MALS = target: the molecule itself

**Q.** How did the stoichiometry N [1] turn out when “CdChdC variant H118A (from UniProt Q6NGV6 1-234) (enzyme)” was run?
**A.** 5

**Q.** How did the stoichiometry N [2] turn out when “CdChdC variant H118A/Y135A (from UniProt Q6NGV6 1-234) (enzyme)” was run?
**A.** 5

**Q.** With “CdChdC variant Y135A (from UniProt Q6NGV6 1-234) (enzyme)” as the molecule, how does the stoichiometry N [3] read?
**A.** 5

B1: coproheme decarboxylase from Corynebacterium diphtheriae (CdChdC), wild-type (enzyme)
chain: MAEKLNFEELNSMQRYSQFAVFRAIPGALGSDRAEIVAQAQSFFDGLETAGKVEVRGIYDLAGCRAEADFMIWWIAEEFEEIQAAFARFRRETVLGQVSEVAWLGNSLHRPAEFNRSHLPSFIMGEIPGDWITVYPFVRSYDWYIMDPQKRRKILAEHGQAARDFPDVRANTVPAFALGDYEWMLAFEAPRLDRIVDLMHKMRYTEARLHVREETPFFTGRRVSEVSELVNVLP
**Q.** B1 was tested. Which “stoichiometry N” value (SEC-MALS) did it give?
**A.** 5
